Paper PMC2791020 (The Journal of Biological Chemistry, 2009)

Target: protein kinase A catalytic (C) subunit, wild type (UniProt P05132 2-351)
Assay: SPR

- Kd: 2.9 nM
- koff: 0.000316 s⁻¹
B1: RIIβAB, truncated PKA regulatory subunit RIIβ (domain or fragment)
chain: TRRASVCAEAYNPDEEEDDAESRIIHPKTDDQRNRLQEACKDILLFKNLDPEQMSQVLDAMFEKLVKEGEHVIDQGDDGDNFYVIDRGTFDIYVKCDGVGRCVGNYDNRGSFGELALMYNTPRAATITATSPGALWGLDRVTFRRIIVKNNAKKRKMYESFIESLPFLKSLEVSERLKVVDVIGTKVYNDGEQIIAQGDSADSFFIVESGEVRITMKRKGKSDIEENGAVEIARCLRGQYFGELALVTNKPRAASAHAIGTVKCLAMDVQAFERLLGPCMEIMKRNIATYEEQLV
